The values below come from patent publication US20070238143A1, “Metal ion mediated fluorescence superquenching assays, kits and reagents” (priority 2003, published 2007).

Data set [1] has as its target T1, protein tyrosine phosphatase 1B (PTP-1B) (Homo sapiens, UniProt P18031).
T1 construct: purchased Biomol
T1 sequence (P18031 1-435): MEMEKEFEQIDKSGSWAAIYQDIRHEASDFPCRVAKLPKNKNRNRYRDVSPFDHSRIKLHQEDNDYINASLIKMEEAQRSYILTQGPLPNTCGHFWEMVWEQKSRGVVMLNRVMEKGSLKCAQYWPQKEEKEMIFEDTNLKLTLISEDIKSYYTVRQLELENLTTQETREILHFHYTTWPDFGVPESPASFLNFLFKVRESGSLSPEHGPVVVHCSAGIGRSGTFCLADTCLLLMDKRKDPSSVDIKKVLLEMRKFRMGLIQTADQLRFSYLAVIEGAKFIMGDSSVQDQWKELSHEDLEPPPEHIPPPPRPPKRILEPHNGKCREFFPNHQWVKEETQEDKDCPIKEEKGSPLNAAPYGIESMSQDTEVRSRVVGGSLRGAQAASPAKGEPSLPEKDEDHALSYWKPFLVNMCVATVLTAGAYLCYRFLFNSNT
The experiment in a line: Protein tyrosine phosphatase 1B (PTP-1B) metal ion mediated superquenching assay, inhibition. The class given is biochemical. As to conditions: inhibitor curve; FIG. 7. The procedure:
For detection of phosphatase activity:
Recombinant PKA was purchased from Promega. […] Polystyrene amine functionalized beads were obtained from Interfacial Dynamics.
The format was tested for detection of protein tyrosine phosphatase activity 1B (PTP-1B) on a peptide substrate of different length and sequence composition than the one used for PKA.

The test system of another data set is T2, biotin-LRRASLG.
T2 sequence: LRRASLG

The subject of a further data set is T3, Rhodamine-LRRASLG.
T3 sequence: LRRASLG

A further data set deals with T4, Rhodamine-LRRA(pS)LG.
T4 sequence: LRRASLG

The subject of data set [2] is myelin basic protein (MBP).

In data set [1], `CCCCCCCCCCCCCCCC(=O)C1=C(O)C(CO)OC1=O` (stereo not shown) [RK-682] displayed an IC50 of 26.4 nM.
Consider Recombinant Protein Kinase A (PKA), for which the “two-step PKA endpoint assay (fluorescence quench)” value in the data set on biotin-LRRASLG is on record as “the assays perform using either synthetic substrates with an N-terminal quencher or using biotinylated substrates to which a streptavidin-fluorescein conjugate is added”. The “endpoint measurement of PKA enzyme activity (polymer quench)” value in the data set on Rhodamine-LRRASLG is on record as “an increase in polymer quench correlates with enzyme concentration”.
In the data set on Rhodamine-LRRA(pS)LG, Trypsin registered a Sample (sensor fluorescence after trypsin reaction) of 42100, a Signal Increase of 34400 and a Signal/Background of 5.42.
In the case of kinase PKCα, in data set [2], the “blocking kinase assay (fluorescence turn-on)” value is “The resulting fluorescence correlates with the extent of mbp phosphorylation”.

Usually IC50 stands for the concentration at which inhibition is half-maximal. Lower therefore signals higher potency.
